Measurements reported in US20160031945A1 (INDIANA UNIVERSITY RESEARCH AND TECHNOLOGY, published 2016).

Key:
[1] = biological target: T1, CaV2.2 Ct-dis-GST fusion protein (distal end of the C-terminus of CaV2.2) (rat, UniProt Q02294 2121-2336); assay: SPR (BIAcore 3000), immobilized Ct-dis-GST
T1 construct: range 2133-2348; also called distal C-terminus; not shown: GST tag of the pGex-3x-Glu vector

[2] = biological target: T2, CaV2.2 L1-GST fusion protein (first cytosolic loop of CaV2.2) (rat, UniProt Q02294 356-483); assay: SPR (BIAcore 3000), immobilized L1-GST
T2 construct: range 356-483; also called cytosolic loop 1; first intracellular loop; not shown: GST tag of the pGex-3x-Glu vector
T2 sequence (Q02294 other isoform, or with tags, fused parts or gaps): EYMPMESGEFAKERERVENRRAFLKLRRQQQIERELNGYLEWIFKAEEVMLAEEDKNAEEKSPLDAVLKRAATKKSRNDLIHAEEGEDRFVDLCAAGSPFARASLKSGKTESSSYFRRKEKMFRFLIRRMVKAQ

T1 sequence (Q02294 other isoform, or with tags, fused parts or gaps): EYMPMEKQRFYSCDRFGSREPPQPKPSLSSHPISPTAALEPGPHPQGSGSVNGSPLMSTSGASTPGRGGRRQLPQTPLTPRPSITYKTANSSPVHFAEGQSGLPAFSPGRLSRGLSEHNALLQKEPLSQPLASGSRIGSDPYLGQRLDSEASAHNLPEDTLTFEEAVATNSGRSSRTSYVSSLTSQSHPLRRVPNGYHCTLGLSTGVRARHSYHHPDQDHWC

B1: TAT-Scramble (modified TAT sequence coupled to a random sequence) (peptide)
peptide: YGRKKRRQRRRWEAKEMLYFEALVIE
notes: also called TAT control; scramble peptide
B1: no binding (tested: 1/3/5 µM) [1]; no binding (tested: 1/3/5 µM) [2].
